Measured values reported in patent publication EP4722231A1 (Shanxi Jinbo Bio-Pharmaceutical Co., Ltd., dated 2025).

How the values were obtained:
Assay in all cases: cell-based or functional assay
[1] = biological target: SARS-CoV-2 BA.2.75 S protein (SARS-CoV-2 (BA.2.75 variant))
[2] = biological target: SARS-CoV-2 XBB.1.5 S protein (SARS-CoV-2 (XBB.1.5 variant))
[3] = biological target: SARS-CoV-2 Omicron BA.2 S protein (SARS-CoV-2 (BA.2 variant))
[4] = biological target: SARS-CoV-2 BA.2.86 S protein (SARS-CoV-2 (BA.2.86 variant))
[5] = biological target: SARS-CoV-2 EG.5 S protein (SARS-CoV-2 (EG.5 variant))

B1: prokaryote-expressed polypeptide reEK1 (recombinant polypeptide HCoV-EK1, TEKB) (peptide)
peptide: SLDQINVTFLDLEYEMKKLEEAIKKLEESYIDLKEL
Question: Which results are given for B1?
Answer: Inhibitory activity, IC50 (nM), pseudovirus infection of Caco2 cells (luciferase) [1]: 420 nM; Inhibitory activity, IC50 (nM), pseudovirus infection of Caco2 cells (luciferase) [2]: 137 nM; Inhibitory activity, IC50 (nM), pseudovirus infection of Caco2 cells (luciferase) [3]: 354 nM; Inhibitory activity, IC50 (nM), pseudovirus infection of Caco2 cells (luciferase) [4]: 298 nM; Inhibitory activity, IC50 (nM), pseudovirus infection of Caco2 cells (luciferase) [5]: 331 nM

B2: chemically synthesized polypeptide EK1 (peptide)
peptide: Ac-SLDQINVTFLDLEYEMKKLEEAIKKLEESYIDLKEL-NH2
Question: Which “Inhibitory activity, IC50 (nM), pseudovirus infection of Caco2 cells (luciferase)” value (“Inhibitory activity, IC50 (nM)” for short) [1] does the source give for B2 here?
Answer: 438 nM

Question: What about the “Inhibitory activity, IC50 (nM)” value [2] of the same binder?
Answer: 291 nM

Question: What about the “Inhibitory activity, IC50 (nM)” value [3] of the same binder?
Answer: 228 nM

Question: What about the “Inhibitory activity, IC50 (nM)” value [4] of the same binder?
Answer: 392 nM

Question: And the “Inhibitory activity, IC50 (nM)” value [5]?
Answer: 401 nM
